Data as given in paper PMC8131196, “Structure and dynamics of a mycobacterial type VII secretion system” (Nature, 2021).

B1: MycP5 protease (enzyme)
chain: ISPPTIDPGALPPDGPPGPLAPMKQNAYCTEVGVLPGTDFQLQPKYMEMLNLNEAWQFGRGDGVKVAVIDTGVTPHPRLPRLIPGGDYVMAGGDGLSDCDAHGTLVASMIAAVPANGAVPLPSVPRRPVTIPTTETPPPPQTVTLSPVPPQTVTVIPAPPPEEGVPPGAPVPGPEPPPAPGPQPPAVDRGGGTVTVPSYSGGRKIAPIDNPRNPHPSAPSPALGPPPDAFSGIAPGVEIISIRQSSQAFGLKDPYTGDEDPQTAQKIDNVETMARAIVHAANMGASVINISDVMCMSARNVIDQRALGAAVHYAAVDKDAVIVAAAGDGSKKDCKQNPIFDPLQPDDPRAWNAVTTVVTPSWFHDYVLTVGAVDANGQPLSKMSIAGPWVSISAPGTDVVGLSPRDDGLINAIDGPDNSLLVPAGTSFSAAIVSGVAALVRAKFPELSAYQIINRLIHTARPPARGVDNQVGYGVVDPVAALTWDVPKGPAEPPKQLSAPLVVPQPPAPRDMVPIWVAAGGLAGALLIGGAVFGTATLMRRSRKQQ
notes: also called mycosin
B2: EccC5 (natural protein)
chain: MKRGFARPTPEKPPVIKPENIVLSTPLSIPPPEGKPWWLIVVGVVVVGLLGGMVAMVFASGSHVFGGIGSIFPLFMMVGIMMMMFRGMGGGQQQMSRPKLDAMRAQFMLMLDMLRETAQESADSMDANYRWFHPAPNTLAAAVGSPRMWERKPDGKDLNFGVVRVGVGMTRPEVTWGEPQNMPTDIELEPVTGKALQEFGRYQSVVYNLPKMVSLLVEPWYALVGEREQVLGLMRAIICQLAFSHGPDHVQMIVVSSDLDQWDWVKWLPHFGDSRRHDAAGNARMVYTSVREFAAEQAELFAGRGSFTPRHASSSAQTPTPHTVIIADVDDPQWEYVISAEGVDGVTFFDLTGSSMWTDIPERKLQFDKTGVIEALPRDRDTWMVIDDKAWFFALTDQVSIAEAEEFAQKLAQWRLAEAYEEIGQRVAHIGARDILSYYGIDDPGNIDFDSLWASRTDTMGRSRLRAPFGNRSDNGELLFLDMKSLDEGGDGPHGVMSGTTGSGKSTLVRTVIESLMLSHPPEELQFVLADLKGGSAVKPFAGVPHVSRIITDLEEDQALMERFLDALWGEIARRKAICDSAGVDDAKEYNSVRARMRARGQDMAPLPMLVVVIDEFYEWFRIMPTAVDVLDSIGRQGRAYWIHLMMASQTIESRAEKLMENMGYRLVLKARTAGAAQAAGVPNAVNLPAQAGLGYFRKSLEDIIRFQAEFLWRDYFQPGVSIDGEEAPALVHSIDYIRPQLFTNSFTPLEVSVGGPDIEPVVAQPNGEVLESDDIEGGEDEDEEGVRTPKVGTVIIDQLRKIKFEPYRLWQPPLTQPVAIDDLVNRFLGRPWHKEYGSACNLVFPIGIIDRPYKHDQPPWTVDTSGPGANVLILGAGGSGKTTALQTLICSAALTHTPQQVQFYCLAYSSTALTTVSRIPHVGEVAGPTDPYGVRRTVAELLALVRERKRSFLECGIASMEMFRRRKFGGEAGPVPDDGFGDVYLVIDNYRALAEENEVLIEQVNVIINQGPSFGVHVVVTADRESELRPPVRSGFGSRIELRLAAVEDAKLVRSRFAKDVPVKPGRGMVAVNYVRLDSDPQAGLHTLVARPALGSTPDNVFECDSVVAAVSRLTSAQAPPVRRLPARFGVEQVRELASRDTRQGVGAGGIAWAISELDLAPVYLNFAENSHLMVTGRRECGRTTTLATIMSEIGRLYAPGASSAPPPAPGRPSAQVWLVDPRRQLLTALGSDYVERFAYNLDGVVAMMGELAAALAGREPPPGLSAEELLSRSWWSGPEIFLIVDDIQQLPPGFDSPLHKAVPFVNRAADVGLHVIVTRTFGGWSSAGSDPMLRALHQANAPLLVMDADPDEGFIRGKMKGGPLPRGRGLLMAEDTGVFVQVAATEVRR
notes: also called EccC5 ATPase; not shown: TwinStrep, C-terminal, kept

Key:
Test in all cases: cryo-EM structure
[1] = target: the molecule itself
[2] = target: B1; conditions: both partners purified
[3] = target: B2; conditions: both partners purified

| Binder | stoichiometry N [1] | binding result [2] | binding result [3] | binding result [1] |
| --- | --- | --- | --- | --- |
| B1 | 3 |  |  |  |
| EccB5 (natural protein, also called inner EccB5; outer EccB5) MAEESRGQRGSGYGLGLSTRTQVTGYQFLARRTAMALTRWRVRMEIEPGRRQTLAVVASVSAALVICLGALLWSFISPSGQLNESPIIADRDSGALYVRVGDRLYPALNLASARLITGRPDNPHLVRSSQIATMPRGPLVGIPGAPSSFSPKSPPASSWLVCDTVATSSSIGSLQGVTVTVIDGTPDLTGHRQILSGSDAVVLRYGGDAWVIREGRRSRIEPTNRAVLLPLGLTPEQVSQARPMSRALFDALPVGPELLVPEVPNAGGPATFPGAPGPIGTVIVTPQISGPQQYSLVLGDGVQTLPPLVAQILQNAGSAGNTKPLTVEPSTLAKMPVVNRLDLSAYPDNPLEVVDIREHPSTCWWWERTAGENRARVRVVSGPTIPVAATEMNKVVSLVKADTSGRQADQVYFGPDHANFVAVTGNNPGAQTSESLWWVTDAGARFGVEDSKEARDALGLTLTPSLAPWVALRLLPQGPTLSRADALVEHDTLPMDMTPAELVVPK | 6 | binds | binds |  |
| B2 |  |  |  | binds |
